Experimental data as given in the supplement of paper PMC10567573.

B1: GLTSCR2 (parent)
chain: FQRRNMIEPRERAKFKRKYKVKLV
B2: INTS4 (parent)
chain: TIIEPAGESDNPLRFTSGLVVALD

Variants of: B1
Experiment: protein stability index of a GFP-peptide fusion (GPS, HEK-293T) (PSI 1-6); higher = more stable
Settings: c terminus: a fixed tail appended
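Further: lentivirally expressed fusions sorted by FACS into six bins by GFP to DsRed ratio, PSI derived from sequencing read proportions per bin multiplied by bin number.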

Protein stability index of substitutions, site by site:
V24: Y 2.7; C 2.25; H 2.15; N 2.49; I 1.91; W 1.31; D 3.12; T 2.93; G 2.45; R 2.71; P 2.69; E 2.96; Q 2.62; F 2.54; L 1.92; A 2.96; K 3.09; M 2.25; S 2.62
V21: I 2.35; C 2.97; K 3.29; S 2.5; D 3.31; M 2.34; H 2.79; E 2.46; G 2.52; N 2.87; Y 2.61; R 2.86; A 2.67; F 2.55; L 2.28; T 3.07; W 2.44; P 2.33; Q 2.81
K16: F 2.4; E 1.86; D 2.63; R 2.73; T 2.29; C 1.87; S 2.42; G 2.18; P 1.28; Y 2.03; H 2.32; W 2.7; L 2.53; Q 1.87; V 1.86; M 2.07; A 1.62; I 2.64; N 2.48
K22: F 1.73; C 1.51; A 1.93; V 2.03; Y 2.08; Q 2.38; H 1.72; T 1.89; N 2.6; R 2.38; W 1.67; I 1.27; G 2.97; M 2.37; D 2.27; E 2.41; P 2.38; S 1.94; L 1.85
R17: D 2.27; N 2.63; C 2.18; L 2.45; K 2.79; W 2.1; Q 2.07; S 2.77; Y 1.65; G 1.99; M 2.94; T 2.56; A 2.33; H 1.89; V 1.96; P 2.46; F 1.74; I 2.32; E 2.24
F15: W 2.12; Y 2.7; N 2.69; R 3.73; T 2.66; Q 2.96; S 3.08; M 2.76; V 2.81; P 2.44; L 3.05; K 3.05; I 2.51
Y19: L 2.75; G 2.66; W 2.39; V 2.63; Q 2.87; R 3.5; H 2.93; F 2.52; M 2.75; K 3.86; E 3.15; I 2.54; S 2.88; T 2.37; A 2.46; N 2.94; D 3.03; C 2.65; P 2.74
K18: S 2.63; Y 1.71; M 2.22; T 2.24; W 2.3; A 2.25; Q 2.51; E 2.39; P 1.92; F 1.61; N 2.4; D 2.64; G 1.98; L 1.72; V 2.78; R 2.32; I 2.45; C 2.05; H 2.29
L23: G 3.17; N 2.75; C 2.73; Y 2.46; E 2.56; K 2.41; T 2.25; F 1.71; R 3.21; I 2.52; M 1.69; D 3.1; S 2.61; V 2.13; A 2.72; Q 3.43; P 2.12; W 2.15; H 2.31
K20: E 3.17; T 2.34; M 2.14; V 1.99; C 1.93; H 2.62; R 2.1; D 2.09; P 1.95; Y 1.65; W 2.04; S 2.74; L 2.08; N 2.19; Q 1.93; G 2.22; I 2.07; A 3.25; F 2.52

Variants of: B2
Experiment: as above
Settings: c terminus: a fixed tail appended

Protein stability index of substitutions, site by site:
I2: R 3.67; A 3.71; Q 3.22; S 3.48
T1: K 2.68; M 1.68; R 2.32; V 2.23; S 3.41; G 3.82; C 2.38
L23: R 3.6; I 2.4; H 3.81; G 4.16; K 4.07; M 3.26; C 3.62; V 3.1
S9: W 2.19; Q 2.77; R 2.79; M 3.16; T 2.9; P 3.25; D 3.29
N11: Q 3; C 2.9; Y 2.25; L 2.42; K 2.86; I 2.42; F 1.66; H 2.47; R 3.19
A22: H 2.78; Y 2.45; K 3.21; M 2.26; R 2.93; S 3.2; G 2.85; P 3.58
L19: W 1.98; D 4.96; P 3.72; C 3.95; E 4.34; G 4.16; N 4.11; S 4.77; T 4.16
T16: N 3.39; Q 3.35; S 2.88; K 3.02; E 3.44
G18: I 2.4; W 2.09; D 3.67; M 1.67; R 2.24; K 2.77; E 3.15
A6: T 2.61; F 2.52; E 3.74; M 2.63; Y 2.19; G 2.94
E8: T 2.61; I 2.02; L 2.37; D 2.88; M 2.54; V 2.66; N 2.23; A 2.23
V21: R 3.67; K 3.45
E4: A 2.76; F 1.81; W 1.56; S 2.89; V 1.98; P 3.15; K 2.19; Q 2.84
D10: N 3.61; M 2.15; K 2.32; E 2.62; V 2; P 2.83
P12: T 2.93; E 3.13; Y 1.96
R14: W 2.03; G 3.25; Q 3.26; S 3.63; L 2.96
S17: G 2.9; C 1.52; T 2.92; Q 3.06; D 3.92; F 2.08; M 1.67; I 2.27; V 1.73
G7: Y 2.45; D 3.74; T 3.08; Q 3.33; I 2.84
L13: A 3.81; M 3.35; T 4.03; Y 3.17; E 4.12; V 3.01; C 2.94; Q 3.5; F 2.33
I3: Q 3.45; K 3.85
F15: C 3.87; S 4.21; D 5.04; L 3.21; W 2.2
P5: L 2.76; Q 2.49; D 3.36; Y 1.93; R 2.51; V 2.54; A 2.37; K 2.79; G 2.78; S 2.33; W 2.53
D24: K 2.19; V 2.33; S 2.06
V20: Q 3.91; D 4.38; R 3.38; P 4.23
